Series [1] has as its target Hk-gaga (UniProt Q08605). Put plainly: fluorescence anisotropy. The conditions noted are these: Zn2+, EMSA: 18 mM Tris-HCl pH 7.5, 90 mM KCl, 1.8 mM MgCl2, 0.2 mM TCEP, 9% glycerol, 0.11 mg/mL BSA, 2.2% NP-40, 0.02 mM ZnCl2, 20 C, 75 nM DNA, FA: 20 mM Tris-HCl …. For orientation: Polarisation of emitted light reports the rotation of a fluorescent probe.
Series [2] addresses gaga-Hk (UniProt Q08605). Put plainly: fluorescence anisotropy. The conditions noted are these: Zn2+, EMSA: 18 mM Tris-HCl pH 7.5, 90 mM KCl, 1.8 mM MgCl2, 0.2 mM TCEP, 9% glycerol, 0.11 mg/mL BSA, 2.2% NP-40, 0.02 mM ZnCl2, 20 C, 75 nM DNA, FA: 20 mM Tris-HCl ….
For series [3], the target named is gaga-Hk-gaga (UniProt Q08605). In words: fluorescence anisotropy. To be noted: no calf thymus DNA; Zn2+; EMSA: 18 mM Tris-HCl pH 7.5, 90 mM KCl, 1.8 mM MgCl2, 0.2 mM TCEP, 9% glycerol, 0.11 mg/mL BSA, 2.2% NP-40, 0.02 mM ZnCl2, 20 C, 75 nM DNA; FA: 20 mM Tris-HCl ….
Chain of gaga-Hk-gaga (Q08605 other isoform, or with tags, fused parts or gaps): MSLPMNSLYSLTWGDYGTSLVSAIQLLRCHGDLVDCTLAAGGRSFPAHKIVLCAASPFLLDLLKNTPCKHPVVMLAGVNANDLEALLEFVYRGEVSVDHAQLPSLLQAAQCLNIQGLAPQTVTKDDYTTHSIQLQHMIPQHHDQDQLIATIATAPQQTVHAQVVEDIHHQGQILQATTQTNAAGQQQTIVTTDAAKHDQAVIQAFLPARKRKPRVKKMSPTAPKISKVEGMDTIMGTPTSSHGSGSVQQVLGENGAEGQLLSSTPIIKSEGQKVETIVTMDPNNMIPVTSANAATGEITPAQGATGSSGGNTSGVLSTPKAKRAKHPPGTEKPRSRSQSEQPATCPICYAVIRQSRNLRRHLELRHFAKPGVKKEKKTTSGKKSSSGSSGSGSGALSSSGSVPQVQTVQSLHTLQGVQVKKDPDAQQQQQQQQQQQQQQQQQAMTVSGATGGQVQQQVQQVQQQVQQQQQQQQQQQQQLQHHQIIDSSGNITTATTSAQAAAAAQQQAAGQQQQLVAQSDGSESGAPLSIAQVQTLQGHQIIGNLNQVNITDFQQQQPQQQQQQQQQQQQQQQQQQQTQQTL
The target in series [4] is T1, gaga (GAGA Cys2-His2 zinc finger peptide) (UniProt Q08605 337-367).
T1 chain: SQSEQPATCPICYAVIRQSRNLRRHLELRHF
Put plainly: EMSA; Zn2+; 1000 nM; EMSA: 18 mM Tris-HCl pH 7.5, 90 mM KCl, 1.8 mM MgCl2, 0.2 mM TCEP, 9% glycerol, 0.11 mg/mL BSA, 2.2% NP-40, 0.02 mM ZnCl2, 20 C, 75 nM DNA; FA: 20 mM Tris-HCl pH 7.5, 100 mM NaCl, 0.02 mM ZnCl2, 20 C, 25 nM DNA; nanopore: 100 mM NaCl, 0.02 mM ZnCl2, 20 mM Tris-HCl pH 7.5, 22 C. Background: Mobility shift assays separate free from complexed probe on a gel.

What is called Kd is the free concentration of one partner at which half of the binding sites on the other are occupied at equilibrium, for simple one-to-one binding. Read a high Kd as lower affinity.

Chain of gaga-Hk (Q08605 other isoform, or with tags, fused parts or gaps): as the sequence (Q08605 other isoform, or with tags, fused parts or gaps) above
Chain of Hk-gaga (Q08605 other isoform, or with tags, fused parts or gaps): as the sequence (Q08605 other isoform, or with tags, fused parts or gaps) above

Turning to “CGCGTCATAATTGAGAGCGC (double strand) [TMR-AT·GAG]”, the Kd is 92 nM in series [1] (50 uM bp calf thymus DNA), 44 nM in series [1] (no calf thymus DNA), 58 nM in series [2] (50 uM bp calf thymus DNA) and 41 nM in series [2] (no calf thymus DNA).
The molecule “CGCGTCATCAGCGAGAGCGC (double strand) [TMR-cg·GAG]” had a Kd in series [2] (no calf thymus DNA) of 100 nM.
For “GAGCTCTCAATTGAGAGCGCG (double strand) [TMR-CTC·AT·GAG]”, in series [3], the Kd came to 35 nM. This lies in the double-digit nanomolar range.

B1: AT·GAG (= cat·AT·GAG) (dsDNA)
DNA 1: CGCGTCATAATTGAGAGCGC
DNA 2: GCGCTCTCAATTATGACGCG
With B1, the binding result in series [4] was “no binding”.

B2: cg·GAG (dsDNA)
DNA 1: CGCGTCATCAGCGAGAGCGC
DNA 2: GCGCTCTCGCTGATGACGCG
As to B2, the binding result in series [4] was “no binding”.

The values above are taken from article PMC5941273, “DNA-binding miniproteins based on zinc fingers. Assessment of the interaction using nanopores† †Electronic supplementary information (ESI) available. See DOI: 10.1039/c7sc05441f”.
